The target in this assay is Human pyruvate kinase isoform M2 (PKM2), wild type (human) (UniProt P14618). In words: SEC.

We go through one substance from PMC4995138.

Sequence of Human pyruvate kinase isoform M2 (PKM2), wild type, P14618 1-531 (enzyme; other documents disagree on this pair) (P14618 whole entry, canonical isoform): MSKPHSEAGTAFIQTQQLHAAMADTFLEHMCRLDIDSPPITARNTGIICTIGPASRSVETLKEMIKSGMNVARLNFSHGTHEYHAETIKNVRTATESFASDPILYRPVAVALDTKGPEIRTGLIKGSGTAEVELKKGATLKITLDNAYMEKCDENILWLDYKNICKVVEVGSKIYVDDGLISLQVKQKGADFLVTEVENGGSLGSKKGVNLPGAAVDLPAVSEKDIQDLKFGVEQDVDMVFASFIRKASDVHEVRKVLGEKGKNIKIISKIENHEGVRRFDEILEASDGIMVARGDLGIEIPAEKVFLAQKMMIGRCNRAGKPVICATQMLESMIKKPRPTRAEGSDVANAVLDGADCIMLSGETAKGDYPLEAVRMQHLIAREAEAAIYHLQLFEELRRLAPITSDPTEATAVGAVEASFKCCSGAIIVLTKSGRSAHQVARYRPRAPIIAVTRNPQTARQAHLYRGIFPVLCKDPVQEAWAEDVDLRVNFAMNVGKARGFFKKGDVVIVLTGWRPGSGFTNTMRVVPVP

In turn, “Human pyruvate kinase isoform M2 (PKM2), wild type, P14618 1-531 (enzyme; other documents disagree on this pair)” showed a stoichiometry N of 2.
